Data published in patent publication US20200109211A1 (ELSALYS BIOTECH, published 2020).

T1: recombinant human CD160 protein, soluble form, with a C-terminal tag of 6 histidine residues (R&D SYSTEMS) (human, UniProt O95971 27-159, limits assumed, biotinylated with EZ-Link sulfo-NHS-LC-biotin for BLI and ELISA; not biotinylated when immobilised on the CM5 chip for SPR)
T1 construct: domain: soluble form; Bought protein; also called hCD160-his; biotinylated CD160
T1 sequence: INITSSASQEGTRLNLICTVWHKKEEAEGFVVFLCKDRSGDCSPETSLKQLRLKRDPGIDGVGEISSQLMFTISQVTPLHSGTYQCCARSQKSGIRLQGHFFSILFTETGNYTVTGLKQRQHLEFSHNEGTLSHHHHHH

T2: human CD160 (CD160 GPI isoform) on cells (human, UniProt O95971 25-159, GPI anchor)
T2 construct: whole, on cells; Used for all cells said to carry human CD160: transfected CHO-S and E300 cells and cells that carry it naturally (YT2C2, blood NK, CD8+ T, T CD4, CLL cells); also called hCD160; CHO-S-hCD160 (clone 2G10)
T2 sequence (looked up): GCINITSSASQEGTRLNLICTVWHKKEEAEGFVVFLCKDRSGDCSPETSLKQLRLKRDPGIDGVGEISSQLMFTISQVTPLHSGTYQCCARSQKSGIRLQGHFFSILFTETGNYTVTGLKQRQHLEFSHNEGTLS


Assays:
[1] = target: T1, recombinant human CD160 protein, …; experiment: BLI (repeats Table 9)
[2] = target: T1, recombinant human CD160 protein, …; experiment: BLI, biotinylated CD160 at 10 nM on streptavidin sensor, antibody 3.13-100 nM
[3] = target: T1, recombinant human CD160 protein, …; experiment: BLI (Octet K2), biotinylated hCD160-His on streptavidin sensor, antibody as analyte
Experimental: (§1) All the experiments were carried out at 30° C. in the running buffer recommended by Fortebio (PBS with 0.1% (p/v) of bovine serum albumin (BSA) and 0.02% (v/v) Tween-20). This buffer was also used for diluting the various ligands and analytes. The samples deposited in a 96-well microplate (cat #738-0026, Dutscher) were shaken at 1000 revolutions per minute.
Between the measurements, the surfaces of the biosensor were regenerated by exposing them to 3 cycles of 5 sec in 10 mM glycine, pH 2, followed by 5 sec in running buffer. The association and dissociation phases were measured for 300 seconds. All the measurements were corrected for the basic drift by subtracting a reference well with a ligand subjected only to the running buffer.
(§2) The dissociation constants and the association (kₒₙ) and dissociation (kdis) rate constants for each antibody were calculated by applying a 1:1 interaction model, with overall mathematical modelling of curves (fit) (Rmax bound by the sensor) on the ForteBio 9.0 data analysis software.

[4] = target: T1, recombinant human CD160 protein, …; experiment: BLI, biotinylated CD160 at 10 nM on streptavidin sensor, antibody 3.13-100 nM (row repeated from Table 9)
Experimental: as §1, §2

[5] = target: T1, recombinant human CD160 protein, …; experiment: SPR (Biacore), design close to Example 2
[6] = target: T1, recombinant human CD160 protein, …; experiment: ELISA, soluble Fab in periplasmic extract
From the text: (§3) The binding of the clones selected (from the rounds of selection on CD160 protein and on CHO-CD160 cells) as soluble Fab was also looked at by ELISA and FACS using periplasmic extracts (P.E). The binding of the soluble Fabs to the human CD160 protein, using ELISA, was detected using an anti-c-myc antibody followed by an anti-mouse HRP conjugated antibody. The binding of the soluble Fabs to the CHO cells overexpressing human CD160 was detected using an anti-c-myc antibody followed by a goat anti-mouse APC conjugated antibody. The results of the ELISA and FACS experiments using Fabs expressed at the surface of the phages or in periplasmic extracts confirmed the binding capacity of each of the affinity-matured H7 clones to human CD160.

[7] = target: T2, human CD160 (CD160 GPI isoform) on cells; experiment: phage FACS on CHO cells expressing hCD160
From the text: (§4) Thus, phage clones were generated and also made it possible to produce periplasmic extracts of bacteria, containing unpurified soluble Fabs. The individual clones were selected for their binding capacity to the human CD160 protein, by ELISA, and to cells expressing human CD160 by FACS, this being i) either in the form of gene III-Fab fusion proteins expressed at the surface of the filamentous phage or ii) in the form of periplasmic extracts containing fragments of unpurified soluble Fabs. The individual clones (in the form of periplasmic extracts containing fragments of soluble Fabs) were also classified according to their kinetic dissociation constant (kdis).
(§5) From a practical point of view, the binding of the phage to human CD160 was detected using an anti-M13 HRP conjugated antibody. The binding of the phage to the cells expressing CD160 was detected using a mouse anti-M13-biotin antibody followed by Streptavidin-PE.

[8] = target: T1, recombinant human CD160 protein, …; experiment: phage ELISA, Fab on phage
From the text: as §4, §5

[9] = target: T2, human CD160 (CD160 GPI isoform) on cells; experiment: FACS on CHO cells overexpressing hCD160, soluble Fab in periplasmic extract
From the text: as §3

[10] = target: T1, recombinant human CD160 protein, …; experiment: SPR (Biacore 3000), hCD160 on CM5 chip, periplasmic extract with soluble Fab diluted 1:5
Experimental: The binding capacity of the H7 variants was also tested by surface plasmon resonance (SPR). For this, a Biacore 3000 (GE Healthcare) was used. […] The integrity of the immobilized human CD160 was confirmed using the anti-huCD160 H7 IgG1 antibody. For the kinetic measurements, concentrations in cascade of human ECD160 with two-fold dilutions (0.15 μM-10 μM) were injected, twice, in PBS, with a Biacore P20 buffer at 25° C. and a flow rate of 30 μl/min.
The regeneration conditions were tested and 10 pi of 10 mM NaOH/1M NaCl were injected for the regeneration between the sample injections. To analyse the binding of the clones to human CD160, the periplasmic extracts containing the soluble Fabs were diluted to 1:5 in BIACORE P20 buffer (10 mM Hepes, 150 mM NaCl, 3 mM EDTA, 0.005% Tween-20) with a flow rate of 30 μl/min for 120 seconds for the association; the dissociation was measured for 300 seconds.
The maximum absolute response of the binding of each of these variants (expressed as measurement of arbitrary response units at time=120 seconds post-injection of the antibody) was evaluated on a surface coated with CD160 protein.

Binder | P.E ELISA O.D450 nm on biotinylated CD160 [6] | Phage FACS (% binding) [7] | Phage ELISA O.D450 nm on biotinylated CD160 [8] | P.E FACS (% binding) [9] | Biacore R.U ratio (variant/FaWT 2E07) [10] | Biacore R.U ratio (variant/H7 WT) [10] | Binding response, RU arbitrary unit (at t = 120 s post-mab injection) [10] | also measured
anti-CD160 H7 antibody in the human IgG1 format (antibody, also called H7 IgG1; ELB02101) heavy: not shown light: EIVLTQSPATLSLSPGERATLSCRASQSISNHLHWYQQKPGQAPRLLIKYASQSISGIPARFSGSGSGTDFTLTISSLEPEDFAVYFCQQSNSWPLTFGGGTKVEIKRTVAAPSVFIFPPSDEQLKSGTASVVCLLNNFYPREAKVQWKVDNALQSGNSQESVTEQDSKDSTYSLSSTLTLSKADYEKHKVYACEVTHQGLSSPVTKSFNRGEC |  |  |  |  |  |  |  | Kd [1]: 2.94 nM; koff [1]: 0.00109 s⁻¹; kon [1]: 370000 M⁻¹ s⁻¹; Kd [2]: 2.94 nM; koff [2]: 0.00109 s⁻¹; kon [2]: 370000 M⁻¹ s⁻¹; Binding response, at 50 nM of anti-CD160 [3]: 1.01 nm (arbitrary units); Kd [3]: 4 nM; koff [3]: 0.00235 s⁻¹; kon [3]: 587000 M⁻¹ s⁻¹; Kd [4]: 2.94 nM; koff [4]: 0.00109 s⁻¹; kon [4]: 370000 M⁻¹ s⁻¹; Kd [5]: 12 nM; koff [5]: 0.00251 s⁻¹; kon [5]: 209000 M⁻¹ s⁻¹
FJ1516MP02A12 (H7 VH family 3) Fab clone (Fab, V domains shown, Tested as Fab on phage and as soluble Fab in periplasmic extract) VH: QVQLVQSGAEVKKPGASVKVSCKASGYTFTDYWMQWIRQAPGQGLEWIGAIYPGDDDAQFTQKFRGRATLTADKSTSTAYMELSSLRSEDTAVYYCARRGIAAVVGGFDYWGQGTTLTVSS VL: EIVLTQSPATLSLSPGERATLSCRASQSISNHLHWYQQKPGQAPRLLIKYASQSISGIPARFSGSGSGTDFTLTISSLEPEDFAVYFCQQSNSWPLTFGGGTKVEIK | 0.148 OD450 | 92.1% | 6 OD450 | 1.23% | 1.5 fold | 3.3 fold | 20.1 RU | 
FJ1516MP02D09 (H7 VH family 2) Fab clone (Fab, V domains shown, Tested as Fab on phage and as soluble Fab in periplasmic extract) VH: QVQLVQSGAEVKKPGASVKVSCKASGYTFSESWMQWIRQAPGQGLEWIGAIYPGDDEARVTQKFRGRATLTADKSTSTAYMELSSLRSEDTAVYYCARRGIAAVVGGFDYWGQGTTLTVSS VL: EIVLTQSPATLSLSPGERATLSCRASQSISNHLHWYQQKPGQAPRLLIKYASQSISGIPARFSGSGSGTDFTLTISSLEPEDFAVYFCQQSNSWPLTFGGGTKVEIK | 0.174 OD450 | 76.4% | 3.63 OD450 | 1.08% | 1.5 fold | 3.2 fold | 19.3 RU | 
FJ1516MP02G05 (H7 VH family 4) Fab clone (Fab, V domains shown, Tested as Fab on phage and as soluble Fab in periplasmic extract) VH: QVQLVQSGAEVKKPGASVKVSCKASGYTFADYWMQWIRQAPGQGLEWIGAIYPGDDDAQYTQKFRGRATLTADKSTSTAYMELSSLRSEDTAVYYCARRGIAAVVGGFDYWGQGTTLTVSS VL: EIVLTQSPATLSLSPGERATLSCRASQSISNHLHWYQQKPGQAPRLLIKYASQSISGIPARFSGSGSGTDFTLTISSLEPEDFAVYFCQQSNSWPLTFGGGTKVEIK | 0.141 OD450 | 86.9% | 3.46 OD450 | 1.06% | 1.2 fold | 2.6 fold | 16 RU | 
